This note sets out measurements from the supplement of paper PMC6755084.

The series relates to F1*sub RNA substrate (template-directed ligation). Put plainly: fraction ligated after 30 min (ligated reads / total reads); higher = more ligase activity; sequences stand for … in GAGACCGCAACTGAAAAGTTGT…AGTTCTGCACGTAGAAGCAAAAGGC
To be noted: 42 °C. In outline:
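Ribozyme variants were transcribed with T7 from PCR-amplified oligo-pool templates and gel-purified. Ligated and unligated bands, separated on gel, were reverse transcribed with barcoded primers and sequenced on a MiSeq, with core bases filtered at quality ≥20. Fraction ligated per variant was computed as ligated reads divided by total reads.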
“TATCACTTGCGAAACACTTTGGATGGGTTGA [3d1614]” had a fraction ligated of 0.819.

Sequence ATACTTGTCGTAAGAACTTTGGATGGGTTGA [3d57] came in with a fraction ligated of 0.448.

Sequence “TATCACTTTCGTAAGACATTTGATGGGTTGA [3d1555]” displayed a fraction ligated of 0.768.

Turning to “TATCACTTGTCGAAGACACTTTGGATGGGTTG [2d220]”, the fraction ligated stood at 0.856.

For the sequence TATACTTTCGTAAGACACTTGGATGGGTTGA [3d805], the fraction ligated was 0.43.

TACATTGTCGTAAGACATTTGGATGGGTTGA [3d558] registered a fraction ligated of 0.298.

With TATACTTGTCGTAAGACACTTGATGGGTTGA [3d926], the fraction ligated came out at 0.765.

ATCACTTGTCGTAAAACTTTGGATGGGTTGA [3d211]: the fraction ligated is 0.768.

For the sequence TTCATTGTCGTAAGACACTTTGGATGGGTTA [3d334], the fraction ligated turned out to be 0.0829.

As to ATCACTTGTCTAAGACACTTTGGATGGGTTG [3d184], the fraction ligated came to 0.762.

Sequence “TATCACTGTCGTAGCACTTTGGATGGGTTGA [3d1387]” returned a fraction ligated of 0.881.

In the case of “TATCACTGTCGAAGACACTTTGGATGGGTTG [3d1384]”, the fraction ligated was 0.829.

In turn, “TATCACTGTCGTAAGACATTGGATGGGTTGA [3d1433]” showed a fraction ligated of 0.818.

Consider TACACTTGTCGTAAGACATTTGGTGGGTTGA [3d709], for which the fraction ligated stood at 0.0505.

Turning to “TATCACTTGTCGTAAGACTTTGGATGGGTTGA [2d244]”, the fraction ligated came to 0.821.

Consider TATACTTGCGTAAGACATTTGGATGGGTTGA [3d820], for which the fraction ligated was determined as 0.722.

Consider “TATCACTTGTCGTAGCACTTTGGTGGGTTGA [3d2008]”, for which the fraction ligated was 0.0859.

Take “TATCCTTGTCGAAGAACTTTGGATGGGTTGA [3d1032]”: the fraction ligated was 0.772.

In turn, “TATCACTTGCGTAGAACTTTGGATGGGTTGA [3d1629]” registered a fraction ligated of 0.862.

Sequence “TATCACTTGTCGTAAGACACTTGGAGGGTTA [3d2249]” displayed a fraction ligated of 0.0115.

On to “TATCACTTGTCGTAAGCCTTGGATGGGTTGA [3d2114]”, for which the fraction ligated came out at 0.778.

“TATCACTTGTCGTAAGACATTTGGATGGGTT [3d2229]” gave a fraction ligated of 0.73.

In the case of TATACTTGTCGTAAGACACTTTGATGGGTTG [3d937], the fraction ligated came out at 0.537.

Take TACACTTGTCGTAAGACCTTTGGATGGGTTA [3d705]: the fraction ligated came to 0.136.

In turn, “TATCATTGTCGAAGACACTTTGGATGGGTTGA [2d114]” gave a fraction ligated of 0.798.

“TATCACTTGTCGTAAACACTTTGGATGGGTT [3d2103]” had a fraction ligated of 0.628.

The sequence TATACTTGTCGTAAGACACTTTGGGGGTTGA [3d938] displayed a fraction ligated of 0.0526.

For the sequence TATACTGTCGTAAGACACTTTGGATGGGTTGA [2d71], the fraction ligated turned out to be 0.797.

As to “TATCACTTGCGTAAGACACTTTGGATGGTTGA [2d176]”, the fraction ligated is 0.324.

The sequence TACACTTGTCGTAAGACACTTTGATGGGTTGA [2d63] yielded a fraction ligated of 0.194.

Consider “TATCACTGTCGTAGACACTTTGGTGGGTTGA [3d1393]”, for which the fraction ligated came to 0.499.

The sequence “TATCACTTGTCGTAGACACTTTGGTGGGTTGA [2d229]” displayed a fraction ligated of 0.287.

Consider “TATCACTTGTGAAGACACTTTGGAGGGTTGA [3d1727]”, for which the fraction ligated was determined as 0.0789.

The sequence “TATCATTGTCGAAGACCTTTGGATGGGTTGA [3d1205]” had a fraction ligated of 0.768.

“TATCACTGTCGTAAGAACTTTGGTGGGTTGA [3d1421]” displayed a fraction ligated of 0.079.

Turning to “TATCATTGTCAAGACACTTTGGATGGGTTGA [3d1187]”, the fraction ligated is 0.783.

Sequence “TATCACTTGTCGTGCACTTTGGATGGGTTGA [3d1982]” showed a fraction ligated of 0.783.

The sequence “TATCACTTGTCTAAGAACTTTGGATGGTTGA [3d1861]” showed a fraction ligated of 0.166.

For TATACTTGCGTAAACACTTTGGATGGGTTGA [3d816], the fraction ligated was found to be 0.464.

As for TACACTTTGTAAGACACTTTGGATGGGTTGA [3d585], the fraction ligated came out at 0.0938.

Sequence “TATCACTTGTTAAGACACTTTGGAGGGTTGA [3d1714]” yielded a fraction ligated of 0.111.

As to TACACTTGTCGTAAGACCTTGGATGGGTTGA [3d700], the fraction ligated worked out at 0.222.

Consider “TATCACTTGTCGTGACATTTGGATGGGTTGA [3d1985]”, for which the fraction ligated stood at 0.809.

“TATCACTTGCGTAAGACACTTTGGTGGGTTA [3d1696]” displayed a fraction ligated of 0.0753.

Consider TTCATTGTCGTAAGACACTTTGGATGGGTTGA [2d27], for which the fraction ligated is 0.509.

Turning to TATCTTGTCGTAAGACACTTTGGAGGGTTGA [3d754], the fraction ligated worked out at 0.0612.

Sequence TACACTTGCGTAAGACACTTTGGATGGTTGA [3d614] yielded a fraction ligated of 0.102.

As to ATCACTTTCGTAGACACTTTGGATGGGTTGA [3d127], the fraction ligated worked out at 0.781.

Sequence TATACTTGTCGTAAACACTTTGGATGGGTTG [3d892] had a fraction ligated of 0.0953.

Consider ATCACTTGCGTAAGACATTTGGATGGGTTGA [3d148], for which the fraction ligated was 0.768.

“TATCACTTGCGTAAGAACTTTGGTGGGTTGA [3d1662]” gave a fraction ligated of 0.0953.

Sequence TACATTGTCGTAAGACACTTTGGATGGTTGA [3d563] returned a fraction ligated of 0.303.

Turning to TACACTTGTCGTAAGCACTTTGGATGGGTTG [3d691], the fraction ligated came out at 0.151.

“TATCACTTGTCGTAGACACTTTGGATGGTTGA [2d231]”: the fraction ligated was 0.678.

For the sequence TTCACTTGTCGAAGACACTTTGATGGGTTGA [3d423], the fraction ligated was found to be 0.17.

For the sequence “TATCACTTGTCGAGACACTTTGGTGGGTTGA [3d1910]”, the fraction ligated amounted to 0.0759.

Sequence “TATCACTTGTCTAAGACACTTTGGTGGGTTA [3d1893]” displayed a fraction ligated of 0.104.

Consider ATCATTGTCGTAAGACACTTTGGATGGTTGA [3d102], for which the fraction ligated is 0.482.

For the sequence “TATCCTTGTCGTAAGACCTTTGGATGGTTGA [3d1087]”, the fraction ligated was found to be 0.0339.

As to TATACTTGTCTAAGACCTTTGGATGGGTTGA [3d848], the fraction ligated came to 0.481.

In turn, “TATCACTTTTAAGACACTTTGGATGGGTTGA [3d1464]” gave a fraction ligated of 0.768.

Regarding ATCACTTGTGTAAGACACTTTGGATGGTTGA [3d168], the fraction ligated came out at 0.45.

With ATCACTTGTCGTAGAACTTTGGATGGGTTGA [3d201], the fraction ligated was determined as 0.867.

Regarding TATACTTGTCGTAAGCACTTTGGATGGGTTG [3d902], the fraction ligated is 0.502.

For the sequence “TATCATTGTGTAAGACACTTTGATGGGTTGA [3d1181]”, the fraction ligated worked out at 0.308.

Consider TTCACTTGTCTAAGACATTTGGATGGGTTGA [3d408], for which the fraction ligated turned out to be 0.753.

For the sequence “TATCACTTGTCGTAGACACTTTGGTGGGTTA [3d2050]”, the fraction ligated came out at 0.0674.

As to “TATCACTTGTCTAAGAATTTGGATGGGTTGA [3d1856]”, the fraction ligated came out at 0.794.

Sequence “TATCACTTGCGAAGACACTTTGGATGGGTTA [3d1624]” returned a fraction ligated of 0.733.

Take ATCACTGTCGTAAGCACTTTGGATGGGTTGA [3d113]: the fraction ligated was 0.749.

Sequence ATCACTTGTGTAAGACACTTTGGATGGGTTA [3d169] came in with a fraction ligated of 0.598.

Regarding “TATCATTTCGTAAGACACTTTGGATGGGTTA [3d1154]”, the fraction ligated is 0.313.

With “TATCACTGCGTAAGACACTTGGATGGGTTGA [3d1336]”, the fraction ligated is 0.793.

For “TATCACTTGTGTAAAACTTTGGATGGGTTGA [3d1744]”, the fraction ligated amounted to 0.856.

Consider “TATCCTTGTCGTAAGACACTTTGGTGGGTTA [3d1112]”, for which the fraction ligated was 0.0152.

As to “TATCACTTGCGTAAGAACTTTGGATGGTTGA [3d1664]”, the fraction ligated worked out at 0.0836.

“TATCACTTGTGTAAGACACTTTGGATGGGTTGA [1d10]” showed a fraction ligated of 0.859.

In turn, “TATCATTGTCGTAGACACTTTGGATGGTTGA [3d1224]” registered a fraction ligated of 0.305.

TACACTTGTCGTAAGAACTTTGGTGGGTTGA [3d695] showed a fraction ligated of 0.0304.

ACACTTGTCGAAGACACTTTGGATGGGTTGA [3d32] gave a fraction ligated of 0.475.

Sequence “TATCATTGCGTAAGAACTTTGGATGGGTTGA [3d1162]” returned a fraction ligated of 0.837.

The sequence TATATTGTCGTAAGACACTTTGGATGGGTTA [3d775] registered a fraction ligated of 0.0168.

As for “TATCACTTGTTAAGACACTTTGGATGGGTTA [3d1716]”, the fraction ligated was 0.778.

As to TATACTTGTCTAAGACACTTTGGATGGGTTG [3d856], the fraction ligated worked out at 0.633.

For the sequence “TATCACTTGCTAAGACACTTTGGAGGGTTGA [3d1609]”, the fraction ligated is 0.13.

For the sequence TATACTTGTCGTAAGACACTTTGATGGGTTA [3d936], the fraction ligated amounted to 0.0174.

With ATCACTTGCGTAAACACTTTGGATGGGTTGA [3d144], the fraction ligated came to 0.758.

Sequence “TATCACTGTCGTAAGACACTTTGGAGGGTTG [3d1459]” gave a fraction ligated of 0.0454.

Take “TATCCTTGTCGTAAGACACTTTGGGGGTTGA [3d1110]”: the fraction ligated came out at 0.0067.

In the case of “TATCACTTTCGTAAGACACTTTGGTGGGTTG [3d1577]”, the fraction ligated is 0.0247.

“TATCACTTGCGTAAGACACTGGATGGGTTGA [3d1681]” returned a fraction ligated of 0.799.

The sequence “TATCATGCGTAAGACACTTTGGATGGGTTGA [3d1123]” displayed a fraction ligated of 0.833.

With “TATCCTTGTCTAAGACATTTGGATGGGTTGA [3d1021]”, the fraction ligated was found to be 0.793.

Consider ATCACTTTCGTAAGACACTTTGGATGGGTTA [3d138], for which the fraction ligated turned out to be 0.137.

In turn, “TATCCTTGTCGTAAGCACTTGGATGGGTTGA [3d1068]” gave a fraction ligated of 0.685.

Sequence “TATCACTTGTCGAAGACACTTTGATGGGTTA [3d1968]” gave a fraction ligated of 0.15.

With TAACTTGTCGTAAGACACTTTGGATGGGTTA [3d526], the fraction ligated amounted to 0.0297.
